In patent publication US20040166099A1 (TOLERRX, published 2004):

Biological target: protein kinase C theta (human, UniProt Q04759 1-706)
Assay: cell-based or functional assay

Chain of protein kinase C theta (Q04759 whole entry): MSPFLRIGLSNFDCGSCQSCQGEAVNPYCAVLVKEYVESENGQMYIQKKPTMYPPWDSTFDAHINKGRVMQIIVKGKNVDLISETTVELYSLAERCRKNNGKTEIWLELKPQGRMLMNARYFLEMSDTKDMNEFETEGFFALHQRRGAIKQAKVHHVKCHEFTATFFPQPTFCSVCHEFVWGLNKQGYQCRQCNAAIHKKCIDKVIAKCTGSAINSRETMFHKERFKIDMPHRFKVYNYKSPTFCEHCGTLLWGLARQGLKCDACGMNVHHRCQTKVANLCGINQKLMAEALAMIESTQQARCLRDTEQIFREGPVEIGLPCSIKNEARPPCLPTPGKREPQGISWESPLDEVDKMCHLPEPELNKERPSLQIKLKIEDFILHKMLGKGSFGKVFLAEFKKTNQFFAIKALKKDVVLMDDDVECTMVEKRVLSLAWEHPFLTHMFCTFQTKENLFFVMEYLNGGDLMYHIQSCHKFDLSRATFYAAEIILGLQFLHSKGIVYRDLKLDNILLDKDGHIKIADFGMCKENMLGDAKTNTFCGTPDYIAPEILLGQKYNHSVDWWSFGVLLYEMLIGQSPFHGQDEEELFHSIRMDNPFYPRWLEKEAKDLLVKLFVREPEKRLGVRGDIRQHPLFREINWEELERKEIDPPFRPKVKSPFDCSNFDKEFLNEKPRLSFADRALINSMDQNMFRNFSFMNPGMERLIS

proliferation (3H-thymidine incorporation) of Th1 and Th2 cells stimulated with CD3 and CD28, relative to no inhibitor: 16 % of control levels
Binder: RQIKIWFQNRRMKWKKMDQNMFRNFSFNMP [antennapedia-PKC theta peptide]
